Results as given in patent US20080213277A1.
Where a chain is given by its changes, count along the chain named.

B1: rat anti-human hepcidin monoclonal antibody R9 (antibody, V domains shown)
VH: QVTLKESGPGILQPSQTLSLTCSFSGFSLSTSGICVSWIRQPSGKGLEWLATICWEDSKGYNPSLKNRLTISKDTSNNQAFLKITSVDTADTAIYYCARPLNYGGYSELELDYWGQGVMVTVSS
VL: DIQMTQSPSLLSASVGDRVTLSCKASQNIYKYLNWYQQKLGEAPKLLIYYTNSLQTGIPSRFSGSGSGTDFTLTISSLQPEDVATYYCYQYNSGPTFGAGTKLELK
B2: murine anti-human hepcidin monoclonal antibody 2.41 (antibody, V domains shown)
VH: QIQLVQSGPELKKPGETVKISCKASGYTFTTYGMSWVKQAPGKGLKWMGWINTSSGVPTYADDFMGRFAFSLETSASTAYLQINNLKNEDTATYFCARDRYYGEVAYWGQGTLVTVSA
VL: DIVLTQSPASLAVSLGQRATISCRASESVDSFGNSFMHWYQLKPGQPPKLLIYRASNLESGIPARFSGSGSRTDFTLTINPVEADDVAIYYCQQSNEEYTFGGGTKLEIK
B3: murine anti-human hepcidin monoclonal antibody Ab43 (antibody, V domains shown)
VH: QIQLVQSGPELKKPGETVKISCKASGYTFTTYGMSWVKQAPGKGLKWMGWINTYSGVPTYADDFKGRFAFSLETSASTAYLQINNLKNEDTATYFCASLWYYGRAFDYWGQGTTLTVSS
VL: NIVLTQSPASLAVSLGQRATISCRASESVDSYGNSFMHWYQQKPGQPPKLLIYLASNLESGVPARFSGSGSRTDFTLTIDPVEADDAATYYCQQNNEDRTFGGGTKLEIK
B4: murine anti-human hepcidin monoclonal antibody 2.7 (antibody, V domains shown)
VH: B2 VH with S54Y, M65K, A97G, R100H
VL: B2 VL with F32Y, L42Q, I89T, Q93H

molecular target: C1-C8, C3-C6 hepcidin variant (human); assay: BIAcore: 1 nM antibody preincubated with 10 nM of this hepcidin form in solution, then run over immobilized rhHepc surface; % = free antibody still binding the surface (low % = strong binding to the solution form)

Binding to Hepcidin Surface (%)	Binder
63	B1
1	B2
25	B3
3	B4

molecular target: linear hepcidin variant (human); assay: as above

Binding to Hepcidin Surface (%)	Binder
100	B1
99	B2
100	B3
100	B4
